T1: recombinant human Plexin B1 with a 6X His tag at C-terminus (human, UniProt O43157 20-1490)
T1 construct: Plexin B1, human; Only the molecular weight (66 kDa) is printed; it must be a fragment of the extracellular part, limits unknown; also called rhPlexin B1; rhPlexin B1-His; source: bought: GenScript; not shown: His6, C-terminal, kept
T1 sequence (looked up): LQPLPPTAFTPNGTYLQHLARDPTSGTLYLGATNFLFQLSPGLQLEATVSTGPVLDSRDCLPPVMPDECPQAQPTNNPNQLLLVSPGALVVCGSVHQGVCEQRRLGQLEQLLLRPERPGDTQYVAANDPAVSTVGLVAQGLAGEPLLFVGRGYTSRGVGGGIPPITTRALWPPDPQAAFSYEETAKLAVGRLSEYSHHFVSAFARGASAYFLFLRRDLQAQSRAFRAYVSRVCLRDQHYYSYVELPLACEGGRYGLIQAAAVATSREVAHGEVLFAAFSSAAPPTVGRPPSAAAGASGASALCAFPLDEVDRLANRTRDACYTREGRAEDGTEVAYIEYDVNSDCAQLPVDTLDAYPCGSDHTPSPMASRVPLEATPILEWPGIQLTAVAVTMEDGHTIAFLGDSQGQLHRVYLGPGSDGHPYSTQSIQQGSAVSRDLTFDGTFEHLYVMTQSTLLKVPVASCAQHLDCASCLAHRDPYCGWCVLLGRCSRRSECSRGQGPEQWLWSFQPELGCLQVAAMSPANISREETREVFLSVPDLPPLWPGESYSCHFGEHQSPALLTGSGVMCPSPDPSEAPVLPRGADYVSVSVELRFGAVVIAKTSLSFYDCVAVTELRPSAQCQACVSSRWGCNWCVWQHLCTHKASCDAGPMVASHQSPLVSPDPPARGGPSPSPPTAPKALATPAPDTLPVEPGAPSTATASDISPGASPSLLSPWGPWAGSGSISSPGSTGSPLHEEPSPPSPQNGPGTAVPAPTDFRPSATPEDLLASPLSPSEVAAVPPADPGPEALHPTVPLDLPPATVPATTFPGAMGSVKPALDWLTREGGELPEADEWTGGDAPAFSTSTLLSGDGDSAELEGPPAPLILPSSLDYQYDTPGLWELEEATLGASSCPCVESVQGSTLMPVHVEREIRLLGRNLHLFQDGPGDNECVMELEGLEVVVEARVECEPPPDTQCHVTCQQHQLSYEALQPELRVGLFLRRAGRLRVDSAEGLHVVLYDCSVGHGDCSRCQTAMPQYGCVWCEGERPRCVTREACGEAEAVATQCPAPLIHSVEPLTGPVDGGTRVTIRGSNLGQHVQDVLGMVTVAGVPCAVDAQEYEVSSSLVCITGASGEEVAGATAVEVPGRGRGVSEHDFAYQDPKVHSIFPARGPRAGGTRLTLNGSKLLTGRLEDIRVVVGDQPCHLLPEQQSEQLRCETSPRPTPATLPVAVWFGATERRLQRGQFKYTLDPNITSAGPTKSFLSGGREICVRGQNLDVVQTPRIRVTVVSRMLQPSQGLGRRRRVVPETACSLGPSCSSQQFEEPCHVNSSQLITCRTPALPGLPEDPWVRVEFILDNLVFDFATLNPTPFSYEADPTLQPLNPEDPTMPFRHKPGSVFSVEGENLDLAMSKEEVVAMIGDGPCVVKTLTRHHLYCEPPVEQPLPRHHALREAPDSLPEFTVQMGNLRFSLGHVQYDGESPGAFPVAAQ


Assays:
Plexin B1 (Homo sapiens) [1] = molecular target: Plexin B1 (Homo sapiens) (UniProt O43157); experiment: SPR; details: cited from earlier work
Plexin D1 = Plexin D1 (UniProt Q9Y4D7); experiment: SPR; details: cited from earlier work
Plexin D1, sequence (Q9Y4D7 47-1271): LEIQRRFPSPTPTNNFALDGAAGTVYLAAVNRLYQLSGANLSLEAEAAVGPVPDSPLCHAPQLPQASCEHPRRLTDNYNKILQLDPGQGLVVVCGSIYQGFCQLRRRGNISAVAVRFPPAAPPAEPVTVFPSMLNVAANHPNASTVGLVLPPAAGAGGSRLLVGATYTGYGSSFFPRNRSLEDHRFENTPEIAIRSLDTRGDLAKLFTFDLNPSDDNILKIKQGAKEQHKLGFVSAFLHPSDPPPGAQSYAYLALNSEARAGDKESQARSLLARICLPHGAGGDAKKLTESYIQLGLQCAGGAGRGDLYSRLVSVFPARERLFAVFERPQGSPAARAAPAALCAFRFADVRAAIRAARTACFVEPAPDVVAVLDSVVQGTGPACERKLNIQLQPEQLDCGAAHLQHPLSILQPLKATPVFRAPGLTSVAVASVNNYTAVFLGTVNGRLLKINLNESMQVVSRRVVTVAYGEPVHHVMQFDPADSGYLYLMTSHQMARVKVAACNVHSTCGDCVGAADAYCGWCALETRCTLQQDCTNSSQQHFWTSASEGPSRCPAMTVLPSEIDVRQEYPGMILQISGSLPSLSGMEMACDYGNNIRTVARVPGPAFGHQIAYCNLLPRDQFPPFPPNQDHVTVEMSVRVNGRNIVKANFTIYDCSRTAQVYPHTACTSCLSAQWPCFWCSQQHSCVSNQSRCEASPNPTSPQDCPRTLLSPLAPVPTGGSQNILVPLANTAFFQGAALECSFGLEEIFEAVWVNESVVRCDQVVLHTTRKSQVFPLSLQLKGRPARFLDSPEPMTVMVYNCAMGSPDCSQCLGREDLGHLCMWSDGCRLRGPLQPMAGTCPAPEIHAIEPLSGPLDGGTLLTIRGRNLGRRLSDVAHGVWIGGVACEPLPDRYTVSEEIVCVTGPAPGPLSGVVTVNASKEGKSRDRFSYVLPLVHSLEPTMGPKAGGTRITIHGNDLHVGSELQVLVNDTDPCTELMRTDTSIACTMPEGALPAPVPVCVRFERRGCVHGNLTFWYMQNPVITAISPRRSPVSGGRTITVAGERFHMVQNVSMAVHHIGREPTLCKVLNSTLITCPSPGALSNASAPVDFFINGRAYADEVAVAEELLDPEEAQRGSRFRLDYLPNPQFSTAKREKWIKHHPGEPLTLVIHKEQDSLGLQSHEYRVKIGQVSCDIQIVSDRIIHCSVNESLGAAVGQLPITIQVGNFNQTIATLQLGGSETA

NRP1 = NRP1 (UniProt O14786); experiment: ELISA; LRA ELISA of Sema4A and NRP1 (Supplemental Figure S2)
NRP1, sequence (O14786 22-856): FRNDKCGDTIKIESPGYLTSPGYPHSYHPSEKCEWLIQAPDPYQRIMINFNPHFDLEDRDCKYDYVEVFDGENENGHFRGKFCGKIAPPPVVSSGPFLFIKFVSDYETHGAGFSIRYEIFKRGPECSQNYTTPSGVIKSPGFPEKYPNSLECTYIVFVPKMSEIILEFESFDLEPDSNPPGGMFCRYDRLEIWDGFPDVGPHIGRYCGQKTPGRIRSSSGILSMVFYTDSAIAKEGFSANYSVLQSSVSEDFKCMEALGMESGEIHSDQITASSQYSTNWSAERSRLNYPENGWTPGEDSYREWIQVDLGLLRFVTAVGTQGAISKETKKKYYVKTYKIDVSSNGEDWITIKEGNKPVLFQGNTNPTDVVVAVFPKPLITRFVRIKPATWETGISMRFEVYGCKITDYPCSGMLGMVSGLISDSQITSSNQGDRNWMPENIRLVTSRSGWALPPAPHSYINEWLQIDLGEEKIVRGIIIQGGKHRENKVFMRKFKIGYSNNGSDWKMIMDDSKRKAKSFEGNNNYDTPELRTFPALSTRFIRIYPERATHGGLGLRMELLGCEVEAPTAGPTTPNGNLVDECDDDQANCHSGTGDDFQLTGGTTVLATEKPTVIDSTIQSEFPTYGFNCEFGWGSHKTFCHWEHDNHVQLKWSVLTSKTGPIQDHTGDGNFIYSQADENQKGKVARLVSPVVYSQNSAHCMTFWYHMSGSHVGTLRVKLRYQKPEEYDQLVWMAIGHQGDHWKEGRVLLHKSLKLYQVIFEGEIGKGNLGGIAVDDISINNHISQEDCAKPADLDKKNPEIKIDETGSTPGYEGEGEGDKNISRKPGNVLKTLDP

[2] = molecular target: recombinant human Plexin B1 with a 6X His tag at C-terminus (human) (UniProt O43157); experiment: ELISA; direct ligand-receptor (LRA) ELISA; Plexin B1 (8-10 ug/mL) immobilised on Immulon 2 plates overnight, Sema4 in solution in varying doses from 2 ug/mL; detection by HRP-labelled Abs to tags; fit 'One site-specific binding with Hill slope'
Plexin B1 (Homo sapiens) [3] = molecular target: Plexin B1 (Homo sapiens) (UniProt O43157); experiment: cell-based ELISA; details: cited from earlier work
[4] = molecular target: soluble recombinant human Sema4A (GST- or Fc-tagged, as used in Figures 2 and 3) (human) (UniProt Q9H3S1); experiment: ELISA; reverse LRA ELISA; Sema4 (2 ug/mL) coated on Immulon 2 plates overnight at 4 C in 0.1 M sodium carbonate-bicarbonate buffer, rhPlexin B1 in solution in varying doses from 10 ug/mL
[5] = molecular target: T1, recombinant human Plexin B1 with a 6X …; experiment: ELISA; direct LRA ELISA; Plexin B1-His (10 ug/mL) captured on HIS-Select nickel-coated microplates in Tris buffer overnight, Sema4 in solution in varying doses from 2 ug/mL; details: both partners purified
[6] = molecular target: T1, recombinant human Plexin B1 with a 6X …; experiment: ELISA; reverse LRA ELISA; Sema4 (2 ug/mL) coated on Immulon 2 plates overnight at 4 C in 0.1 M sodium carbonate-bicarbonate buffer, rhPlexin B1 in solution in varying doses from 10 ug/mL; details: both partners purified

Sema4D Sema domain, sequence (Q92854 22-500): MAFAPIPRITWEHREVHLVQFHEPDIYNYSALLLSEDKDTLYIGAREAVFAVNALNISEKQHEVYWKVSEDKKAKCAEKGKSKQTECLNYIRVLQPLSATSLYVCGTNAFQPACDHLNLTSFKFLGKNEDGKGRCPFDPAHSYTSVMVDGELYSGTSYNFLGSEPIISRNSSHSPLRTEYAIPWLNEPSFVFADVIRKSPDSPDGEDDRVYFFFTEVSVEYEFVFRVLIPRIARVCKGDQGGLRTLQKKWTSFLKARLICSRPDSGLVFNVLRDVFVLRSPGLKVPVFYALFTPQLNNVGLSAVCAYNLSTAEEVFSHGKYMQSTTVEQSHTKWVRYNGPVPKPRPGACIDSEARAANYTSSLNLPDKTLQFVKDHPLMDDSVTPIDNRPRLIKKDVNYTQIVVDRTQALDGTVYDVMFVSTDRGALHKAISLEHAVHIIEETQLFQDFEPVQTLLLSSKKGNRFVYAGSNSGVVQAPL
Sema4D, sequence (Q92854 22-734): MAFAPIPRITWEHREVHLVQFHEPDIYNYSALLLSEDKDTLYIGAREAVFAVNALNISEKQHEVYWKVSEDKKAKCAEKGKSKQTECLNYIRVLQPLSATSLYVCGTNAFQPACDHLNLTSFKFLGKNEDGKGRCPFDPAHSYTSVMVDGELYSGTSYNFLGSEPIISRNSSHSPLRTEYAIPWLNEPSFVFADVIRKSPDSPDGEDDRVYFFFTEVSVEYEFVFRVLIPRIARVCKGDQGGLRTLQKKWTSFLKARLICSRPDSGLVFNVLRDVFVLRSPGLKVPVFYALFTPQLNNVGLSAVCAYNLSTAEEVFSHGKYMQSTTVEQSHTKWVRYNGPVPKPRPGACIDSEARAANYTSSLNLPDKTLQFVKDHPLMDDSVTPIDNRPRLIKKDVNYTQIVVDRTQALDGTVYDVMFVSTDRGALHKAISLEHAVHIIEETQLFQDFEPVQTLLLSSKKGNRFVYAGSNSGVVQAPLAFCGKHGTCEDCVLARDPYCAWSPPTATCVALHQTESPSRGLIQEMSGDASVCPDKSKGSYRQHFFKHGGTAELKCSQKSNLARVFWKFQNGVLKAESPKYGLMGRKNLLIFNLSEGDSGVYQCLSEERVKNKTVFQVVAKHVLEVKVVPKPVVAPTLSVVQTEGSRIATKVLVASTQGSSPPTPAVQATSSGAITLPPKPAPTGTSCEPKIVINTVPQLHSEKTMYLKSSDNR

| Molecule | Kd [5] | Kd [6] | other results |
| --- | --- | --- | --- |
| Sema4D Sema domain (from UniProt Q92854) | – | – | Kd (Plexin B1 (Homo sapiens) [1]): 5500 µM |
| Sema4A (from UniProt Q9H3S1) | – | – | Kd (Plexin D1): 0.00872 µM |
| soluble recombinant human Sema4A (GST- or Fc-tagged, as used in Figures 2 and 3) (from UniProt Q9H3S1 33-683) (ligand) | – | – | Kd (NRP1): 0.0283 µM; Kd [2]: 0.0199 µM |
| Sema4D (from UniProt Q92854) | – | – | Kd (Plexin B1 (Homo sapiens) [3]): 0.0009 µM |
| recombinant human Plexin B1 with a 6X His tag at C-terminus (receptor) LQPLPPTAFTPNGTYLQHLARDPTSGTLYLGATNFLFQLSPGLQLEATVSTGPVLDSRDCLPPVMPDECPQAQPTNNPNQLLLVSPGALVVCGSVHQGVCEQRRLGQLEQLLLRPERPGDTQYVAANDPAVSTVGLVAQGLAGEPLLFVGRGYTSRGVGGGIPPITTRALWPPDPQAAFSYEETAKLAVGRLSEYSHHFVSAFARGASAYFLFLRRDLQAQSRAFRAYVSRVCLRDQHYYSYVELPLACEGGRYGLIQAAAVATSREVAHGEVLFAAFSSAAPPTVGRPPSAAAGASGASALCAFPLDEVDRLANRTRDACYTREGRAEDGTEVAYIEYDVNSDCAQLPVDTLDAYPCGSDHTPSPMASRVPLEATPILEWPGIQLTAVAVTMEDGHTIAFLGDSQGQLHRVYLGPGSDGHPYSTQSIQQGSAVSRDLTFDGTFEHLYVMTQSTLLKVPVASCAQHLDCASCLAHRDPYCGWCVLLGRCSRRSECSRGQGPEQWLWSFQPELGCLQVAAMSPANISREETREVFLSVPDLPPLWPGESYSCHFGEHQSPALLTGSGVMCPSPDPSEAPVLPRGADYVSVSVELRFGAVVIAKTSLSFYDCVAVTELRPSAQCQACVSSRWGCNWCVWQHLCTHKASCDAGPMVASHQSPLVSPDPPARGGPSPSPPTAPKALATPAPDTLPVEPGAPSTATASDISPGASPSLLSPWGPWAGSGSISSPGSTGSPLHEEPSPPSPQNGPGTAVPAPTDFRPSATPEDLLASPLSPSEVAAVPPADPGPEALHPTVPLDLPPATVPATTFPGAMGSVKPALDWLTREGGELPEADEWTGGDAPAFSTSTLLSGDGDSAELEGPPAPLILPSSLDYQYDTPGLWELEEATLGASSCPCVESVQGSTLMPVHVEREIRLLGRNLHLFQDGPGDNECVMELEGLEVVVEARVECEPPPDTQCHVTCQQHQLSYEALQPELRVGLFLRRAGRLRVDSAEGLHVVLYDCSVGHGDCSRCQTAMPQYGCVWCEGERPRCVTREACGEAEAVATQCPAPLIHSVEPLTGPVDGGTRVTIRGSNLGQHVQDVLGMVTVAGVPCAVDAQEYEVSSSLVCITGASGEEVAGATAVEVPGRGRGVSEHDFAYQDPKVHSIFPARGPRAGGTRLTLNGSKLLTGRLEDIRVVVGDQPCHLLPEQQSEQLRCETSPRPTPATLPVAVWFGATERRLQRGQFKYTLDPNITSAGPTKSFLSGGREICVRGQNLDVVQTPRIRVTVVSRMLQPSQGLGRRRRVVPETACSLGPSCSSQQFEEPCHVNSSQLITCRTPALPGLPEDPWVRVEFILDNLVFDFATLNPTPFSYEADPTLQPLNPEDPTMPFRHKPGSVFSVEGENLDLAMSKEEVVAMIGDGPCVVKTLTRHHLYCEPPVEQPLPRHHALREAPDSLPEFTVQMGNLRFSLGHVQYDGESPGAFPVAAQ | – | – | Kd [4]: 0.0354 µM |
| WT rhSema4A-Fc (GenScript) (Fc fusion, human, UniProt Q9H3S1 33-683, looked up, Semaphorin 4A, human; also called WT Sema4A; WT Sema4A-Fc; source: bought: GenScript) GGGQGPMPRVRYYAGDERRALSFFHQKGLQDFDTLLLSGDGNTLYVGAREAILALDIQDPGVPRLKNMIPWPASDRKKSECAFKKKSNETQCFNFIRVLVSYNVTHLYTCGTFAFSPACTFIELQDSYLLPISEDKVMEGKGQSPFDPAHKHTAVLVDGMLYSGTMNNFLGSEPILMRTLGSQPVLKTDNFLRWLHHDASFVAAIPSTQVVYFFFEETASEFDFFERLHTSRVARVCKNDVGGEKLLQKKWTTFLKAQLLCTQPGQLPFNVIRHAVLLPADSPTAPHIYAVFTSQWQVGGTRSSAVCAFSLLDIERVFKGKYKELNKETSRWTTYRGPETNPRPGSCSVGPSSDKALTFMKDHFLMDEQVVGTPLLVKSGVEYTRLAVETAQGLDGHSHLVMYLGTTTGSLHKAVVSGDSSAHLVEEIQLFPDPEPVRNLQLAPTQGAVFVGFSGGVWRVPRANCSVYESCVDCVLARDPHCAWDPESRTCCLLSAPNLNSWKQDMERGNPEWACASGPMSRSLRPQSRPQIIKEVLAVPNSILELPCPHLSALASYYWSHGPAAVPEASSTVYNGSLLLIVQDGVGGLYQCWATENGFSYPVISYWVDSQDQTLALDPELAGIPREHVKVPLTRVSGGAALAAQQSYWPH | 0.00255 µM | 0.0025 µM | – |
| F223A rhSema4A-Fc (Fc fusion, human, UniProt Q9H3S1 33-683, looked up, Semaphorin 4A, human; as the WT Sema4A-Fc of GenScript with F223A; Similar molecular size as the WT Sema4A-Fc protein prepared similarly; also called Sema4A-F223A; Mu F223A Sema4A; source: prepared by GenScript) GGGQGPMPRVRYYAGDERRALSFFHQKGLQDFDTLLLSGDGNTLYVGAREAILALDIQDPGVPRLKNMIPWPASDRKKSECAFKKKSNETQCFNFIRVLVSYNVTHLYTCGTFAFSPACTFIELQDSYLLPISEDKVMEGKGQSPFDPAHKHTAVLVDGMLYSGTMNNFLGSEPILMRTLGSQPVLKTDNALRWLHHDASFVAAIPSTQVVYFFFEETASEFDFFERLHTSRVARVCKNDVGGEKLLQKKWTTFLKAQLLCTQPGQLPFNVIRHAVLLPADSPTAPHIYAVFTSQWQVGGTRSSAVCAFSLLDIERVFKGKYKELNKETSRWTTYRGPETNPRPGSCSVGPSSDKALTFMKDHFLMDEQVVGTPLLVKSGVEYTRLAVETAQGLDGHSHLVMYLGTTTGSLHKAVVSGDSSAHLVEEIQLFPDPEPVRNLQLAPTQGAVFVGFSGGVWRVPRANCSVYESCVDCVLARDPHCAWDPESRTCCLLSAPNLNSWKQDMERGNPEWACASGPMSRSLRPQSRPQIIKEVLAVPNSILELPCPHLSALASYYWSHGPAAVPEASSTVYNGSLLLIVQDGVGGLYQCWATENGFSYPVISYWVDSQDQTLALDPELAGIPREHVKVPLTRVSGGAALAAQQSYWPH | 0.00282 µM | 0.0035 µM | – |
| M198A rhSema4A-Fc (Fc fusion, human, UniProt Q9H3S1 33-683, looked up, Semaphorin 4A, human; as the WT Sema4A-Fc of GenScript with M198A; Similar molecular size as the WT Sema4A-Fc protein prepared similarly; also called Sema4A-M198A; Mu M198A Sema4A; source: prepared by GenScript) GGGQGPMPRVRYYAGDERRALSFFHQKGLQDFDTLLLSGDGNTLYVGAREAILALDIQDPGVPRLKNMIPWPASDRKKSECAFKKKSNETQCFNFIRVLVSYNVTHLYTCGTFAFSPACTFIELQDSYLLPISEDKVMEGKGQSPFDPAHKHTAVLVDGMLYSGTANNFLGSEPILMRTLGSQPVLKTDNFLRWLHHDASFVAAIPSTQVVYFFFEETASEFDFFERLHTSRVARVCKNDVGGEKLLQKKWTTFLKAQLLCTQPGQLPFNVIRHAVLLPADSPTAPHIYAVFTSQWQVGGTRSSAVCAFSLLDIERVFKGKYKELNKETSRWTTYRGPETNPRPGSCSVGPSSDKALTFMKDHFLMDEQVVGTPLLVKSGVEYTRLAVETAQGLDGHSHLVMYLGTTTGSLHKAVVSGDSSAHLVEEIQLFPDPEPVRNLQLAPTQGAVFVGFSGGVWRVPRANCSVYESCVDCVLARDPHCAWDPESRTCCLLSAPNLNSWKQDMERGNPEWACASGPMSRSLRPQSRPQIIKEVLAVPNSILELPCPHLSALASYYWSHGPAAVPEASSTVYNGSLLLIVQDGVGGLYQCWATENGFSYPVISYWVDSQDQTLALDPELAGIPREHVKVPLTRVSGGAALAAQQSYWPH | 0.00419 µM | 0.0017 µM | – |

Source: publication PMC8953949, “Identifying Function Determining Residues in Neuroimmune Semaphorin 4A” (International Journal of Molecular Sciences, 2022)
